{"source": "paper PMC8766848", "about": "“The Structural Basis of Babesia orientalis Lactate Dehydrogenase” (Frontiers in Cellular and Infection Microbiology, 2022)", "key": {"[1]": {"substrate": "C[C@H](O)C(=O)O", "experiment": "purified protein", "conditions": "NAD+"}, "[2]": {"substrate": "NC(=O)c1ccc[n+]([C@@H]2O[C@H](COP(=O)([O-])OP(=O)(O)OC[C@H]3O[C@@H](n4cnc5c(N)ncnc54)[C@H](O)[C@@H]3O)[C@@H](O)[C@H]2O)c1", "experiment": "purified protein", "conditions": "varied: cofactor"}, "[3]": {"substrate": "CC(=O)C(=O)O", "experiment": "purified protein", "format": "biochemical, Babesia orientalis", "conditions": "NADH"}, "[4]": {"substrate": "NC(=O)C1=CN([C@@H]2O[C@H](COP(=O)(O)OP(=O)(O)OC[C@H]3O[C@@H](n4cnc5c(N)ncnc54)[C@H](O)[C@@H]3O)[C@@H](O)[C@H]2O)C=CC1", "experiment": "purified protein", "format": "biochemical, Babesia orientalis", "conditions": "varied: cofactor"}, "[5]": {"substrate": "CC(=O)c1ccc[n+]([C@@H]2O[C@H](COP(=O)([O-])OP(=O)(O)OC[C@H]3O[C@@H](n4cnc5c(N)ncnc54)[C@H](O)[C@@H]3O)[C@@H](O)[C@H]2O)c1", "experiment": "enzyme kinetics (Km), used as synthetic cofactor, lactate to pyruvate", "format": "biochemical, Babesia orientalis", "conditions": "varied: cofactor", "text": "enzyme kinetics (Km), used as synthetic cofactor, lactate to pyruvate on Babesia orientalis lactate dehydrogenase (BoLDH) | BoLDH catalyzes the conversion of lactate to pyruvate using synthetic APAD^+ instead of NAD^+ as a cofactor"}}, "data": [{"protein": "Babesia orientalis lactate dehydrogenase (BoLDH) (Babesia orientalis) (protein, full-length ORF (330 residues), N-terminal His6 tag, recombinant rBoLDH) MLKGFLSTMSPAVRRNKISLIGAGNIGGVMAYLAQLKELGDVVLFDIAPKLGEAKALDIMHANAIYDTAHKAIGTANYEDIADSDVCIITAGLAKLPNKKDEEWSRDDLVAPNSKIMFTIGDNIKKYAPNAFVICITNPLDVMVKMLLKATGFPKNKVVGMGGLLDSSRMCHYIADKLNVNPRYVHGSCIGGHGDSMIPLVNHVTVNGIPIQLFVERGDITQAELDKIAQRTIGSGMELVQLYGNGSAYFAPATAAIEMASAYLNDKKSVIVCSCYLEGEYGHSDVYLGTPAIIGANGIEKIITLKLSSEEQAKLDASVKEIMRLEALAG", "values": [{"measurement": "Km", "setting": "[1]", "value": "166 ± 24.2", "unit": "µM"}, {"measurement": "kcat", "setting": "[1]", "value": 30.5, "unit": "s⁻¹"}, {"measurement": "kcat/Km", "setting": "[1]", "value": 184000, "unit": "M⁻¹ s⁻¹"}, {"measurement": "Km", "setting": "[2]", "value": "493 ± 69.2", "unit": "µM"}, {"measurement": "kcat", "setting": "[2]", "value": 21.5, "unit": "s⁻¹"}, {"measurement": "kcat/Km", "setting": "[2]", "value": 43600, "unit": "M⁻¹ s⁻¹"}, {"measurement": "Km", "setting": "[3]", "value": "102 ± 19.2", "unit": "µM"}, {"measurement": "kcat", "setting": "[3]", "value": 56.5, "unit": "s⁻¹"}, {"measurement": "kcat/Km", "setting": "[3]", "value": 554000, "unit": "M⁻¹ s⁻¹"}, {"measurement": "Km", "setting": "[4]", "value": "126 ± 19.9", "unit": "µM"}, {"measurement": "kcat", "setting": "[4]", "value": 115, "unit": "s⁻¹"}, {"measurement": "kcat/Km", "setting": "[4]", "value": 913000, "unit": "M⁻¹ s⁻¹"}, {"measurement": "Km", "setting": "[5]", "value": "395 ± 49.9", "unit": "µM"}, {"measurement": "kcat", "setting": "[5]", "value": 62.3, "unit": "s⁻¹"}, {"measurement": "kcat/Km", "setting": "[5]", "value": 157000, "unit": "M⁻¹ s⁻¹"}]}]}
